Measured values: article PMC3575474

Legend:
[1] = system: Ku70/80 heterodimer (paper assigns Ku70 XRCC5, Ku80 XRCC6); test: EMSA; details: Invitrogen non-radioactive EMSA kit (SYBR), 25 min at 25 C (stated for nuclear extract), 2.2-2.5% agarose; buffer, salt and pH not given
Nucleolin = test: EMSA; details: Invitrogen non-radioactive EMSA kit (SYBR), 25 min at 25 C (stated for nuclear extract), 2.2-2.5% agarose; buffer, salt and pH not given

IFIH1 rs13023380 A allele PCR product
binding signal (fraction of G allele binding) [1]: 0.5
binding signal (fraction of G allele binding) (Nucleolin): 0.5
